Laboratory results reported in the supplement of paper PMC10567573.

B1: TMEM192 (parent)
chain: LWILHLLLECYIQYHHSKIRNRGY
B2: RAD51 (parent)
chain: APKKELINIKGISEAKADKILAEA

Variants of: B1
Assay: protein stability index of a GFP-peptide fusion (GPS, HEK-293T) (PSI 1-6); higher = more stable
Settings: c terminus: a fixed tail appended
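Further: lentivirally expressed fusions sorted by FACS into six bins by GFP to DsRed ratio, PSI derived from sequencing read proportions per bin multiplied by bin number.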

Variant | protein stability index
KWILHLLLECYIQYHHSKIRNRGY | 2.06
GWILHLLLECYIQYHHSKIRNRGY | 3.04
CWILHLLLECYIQYHHSKIRNRGY | 2.89
IWILHLLLECYIQYHHSKIRNRGY | 2.1
MWILHLLLECYIQYHHSKIRNRGY | 1.48
DWILHLLLECYIQYHHSKIRNRGY | 3
EWILHLLLECYIQYHHSKIRNRGY | 3.02
AWILHLLLECYIQYHHSKIRNRGY | 3.09
HWILHLLLECYIQYHHSKIRNRGY | 4.56

Variants of: B2
Assay: as above
Settings: c terminus: a fixed tail appended

Variant | protein stability index
APKHELINIKGISEAKADKILAEA | 4.17
APKNELINIKGISEAKADKILAEA | 4.95
APKEELINIKGISEAKADKILAEA | 5.22
APKTELINIKGISEAKADKILAEA | 4.69
APKSELINIKGISEAKADKILAEA | 4.96
APKAELINIKGISEAKADKILAEA | 4.44
APKLELINIKGISEAKADKILAEA | 4.19
APKVELINIKGISEAKADKILAEA | 4.82
APKYELINIKGISEAKADKILAEA | 4.52
APKRELINIKGISEAKADKILAEA | 4.39
APKKELVNIKGISEAKADKILAEA | 5.39
APKKELNNIKGISEAKADKILAEA | 4.7
APKKELPNIKGISEAKADKILAEA | 5.04
APKKELENIKGISEAKADKILAEA | 5.17
APKKELFNIKGISEAKADKILAEA | 3.8
APKKELINIKGISRAKADKILAEA | 4.05
APKKELINIKGISDAKADKILAEA | 4.99
APKKELINIKGISMAKADKILAEA | 4.23
APKKELINIKGISFAKADKILAEA | 3.48
APKKELINIKGISYAKADKILAEA | 3.65
APKKELINIKGISKAKADKILAEA | 4.4
APKKELINIKGISGAKADKILAEA | 4.8
APKKELINIKGISHAKADKILAEA | 4.58
APKKELINIKGISVAKADKILAEA | 4.81
APKKELINIKGISLAKADKILAEA | 3.83
APKKELINIKGISCAKADKILAEA | 3.66

Variant | protein stability index
APKKELINIKGISEAKADEILAEA | 5.12
APKKELINIKGISEAKADSILAEA | 4.89
APKKELINIKGISEAKADQILAEA | 4.78
APKKELINIKGISEAKADMILAEA | 4.43
APKKELINIKGISEAKADWILAEA | 3.48
APKKELINIKGISEAKADVILAEA | 4.49
APKKELINIKGISEAKADLILAEA | 3.89
APKKELINIKGISEAKADGILAEA | 4.93
APKKELINIKGISEAHADKILAEA | 4.78
APKKELINIKGISEAGADKILAEA | 5.01
APKKELINIKGISEAPADKILAEA | 4.84
APKKELINIKGISEARADKILAEA | 4.53
APKKELINIKGISEANADKILAEA | 5.08
APKKELINIKGISEAEADKILAEA | 5.08
APKKELINIKGISEAAADKILAEA | 4.47
APKKELINIKGISEAMADKILAEA | 3.59
APKKELINIKGISEACADKILAEA | 4.63
APKKELINIKGISEAYADKILAEA | 3.93
APKKELINIKGISEALADKILAEA | 3.28
APKKELINIKGISEAKADKRLAEA | 4.75
APKKELINIKGISEAKADKDLAEA | 5.47
APKKELINIKGISEAKADKNLAEA | 5.38
APKKELINIKGISEAKADKQLAEA | 5.69
APKKELINIKGISEAKADKVLAEA | 4.97
APKKELINIKGISEAKADKSLAEA | 4.95
APKKELINIKGISEAKADKMLAEA | 5.16

Variant | protein stability index
APKKELINIKGISEAKADKTLAEA | 5.16
APKKELINIKGIQEAKADKILAEA | 4.83
APKKELINIKGILEAKADKILAEA | 4.21
APKKELINIKGIEEAKADKILAEA | 5.23
APKKELINIKGIYEAKADKILAEA | 3.71
APKKELINIKGIVEAKADKILAEA | 4.02
APKKDLINIKGISEAKADKILAEA | 4.6
APKKGLINIKGISEAKADKILAEA | 4.63
APKKVLINIKGISEAKADKILAEA | 3.65
APKKQLINIKGISEAKADKILAEA | 3.96
APKKYLINIKGISEAKADKILAEA | 3.1
APKKNLINIKGISEAKADKILAEA | 4.22
APKKFLINIKGISEAKADKILAEA | 3.04
APKKRLINIKGISEAKADKILAEA | 4.16
APKKMLINIKGISEAKADKILAEA | 3.7
APKKHLINIKGISEAKADKILAEA | 4.48
APMKELINIKGISEAKADKILAEA | 3.95
APRKELINIKGISEAKADKILAEA | 4.58
APSKELINIKGISEAKADKILAEA | 4.55
APFKELINIKGISEAKADKILAEA | 3.48
APAKELINIKGISEAKADKILAEA | 4.92
APGKELINIKGISEAKADKILAEA | 4.65
APKKELINIKGISEAKDDKILAEA | 5.51
APKKELINIKGISEAKEDKILAEA | 5.22
APKKELINIKGISEAKLDKILAEA | 4.53
APKKELINIKGISEAKKDKILAEA | 4.83

Variant | protein stability index
APKKELINIKGISEAKYDKILAEA | 4.08
APKKELINIKGISEAKHDKILAEA | 4.49
APKKELINIKGISEAKNDKILAEA | 4.94
APKKELINIKGISEAKANKILAEA | 4.04
APKKELINIKGISEAKAPKILAEA | 5.17
APKKELINIKGISEAKAKKILAEA | 4.78
APKKELINIKGISEAKAGKILAEA | 4.16
APKKELINIKGISEAKAAKILAEA | 4.26
APKKELINIKGISEAKACKILAEA | 3.36
APKKELINIKGISEAKALKILAEA | 3.9
APKKELINIKGISEAKAEKILAEA | 3.83
APKKELINIKGISEAKADKIAAEA | 4.91
APKKELINIKGISEAKADKIIAEA | 5.32
APKKELINIKGISEAKADKIQAEA | 5.18
APKKELINIKGISEAKADKIGAEA | 4.73
APKKELINIKGISEAKADKIEAEA | 4.54
APKKELINIKGISEAKADKIVAEA | 4.79
APKKELINIKGISEAKADKIWAEA | 4.27
APKKELINIKGESEAKADKILAEA | 4.54
APKKELINIKGYSEAKADKILAEA | 4.13
APKKELINIKGTSEAKADKILAEA | 5.16
APKKELINIKGPSEAKADKILAEA | 5.15
APKKELINIKGWSEAKADKILAEA | 4.36
APKKELINIKGVSEAKADKILAEA | 4.7
ANKKELINIKGISEAKADKILAEA | 4.39
AMKKELINIKGISEAKADKILAEA | 4.53

Variant | protein stability index
ADKKELINIKGISEAKADKILAEA | 5.18
ACKKELINIKGISEAKADKILAEA | 4.5
AKKKELINIKGISEAKADKILAEA | 4.34
AWKKELINIKGISEAKADKILAEA | 3.79
ARKKELINIKGISEAKADKILAEA | 4.02
AQKKELINIKGISEAKADKILAEA | 4.88
ALKKELINIKGISEAKADKILAEA | 3.97
APKKELINIPGISEAKADKILAEA | 4.34
APKKELINIHGISEAKADKILAEA | 4.59
APKKELINISGISEAKADKILAEA | 5.35
APKKELINIMGISEAKADKILAEA | 4.02
APKKELINIWGISEAKADKILAEA | 3.99
APKKELINIIGISEAKADKILAEA | 3.64
APKKELINIEGISEAKADKILAEA | 5.1
APKKELINIGGISEAKADKILAEA | 5.08
APKKELINIVGISEAKADKILAEA | 4.38
APKKELINIKGISEAKADKILHEA | 4.52
APKKELINIKGISEAKADKILDEA | 5.38
APKKELINIKGISEAKADKILMEA | 4.75
APKKELINIKGISEAKADKILLEA | 4.19
APKKELINIKGISEAKADKILASA | 3.79
APKKELINIKGISEAKADKILAKA | 4.46
APKKELINIKGISEAKADKILACA | 3.38
APKKELINIKGISEAKADKILATA | 4.13
APKKELINIKGISEAKADKILAAA | 4.18
APKKELINIKGISEAKADKILAMA | 3.72

Variant | protein stability index
APKKELINIKGISEAKADKILAGA | 4.1
APKKEPINIKGISEAKADKILAEA | 5.31
APKKEQINIKGISEAKADKILAEA | 4.79
APKKERINIKGISEAKADKILAEA | 4.61
APKKEHINIKGISEAKADKILAEA | 5.13
APKKEMINIKGISEAKADKILAEA | 4.92
APKKEWINIKGISEAKADKILAEA | 4.12
APKKESINIKGISEAKADKILAEA | 4.79
TPKKELINIKGISEAKADKILAEA | 4.41
CPKKELINIKGISEAKADKILAEA | 4.73
PPKKELINIKGISEAKADKILAEA | 4.67
IPKKELINIKGISEAKADKILAEA | 4.39
LPKKELINIKGISEAKADKILAEA | 4.72
RPKKELINIKGISEAKADKILAEA | 4.63
QPKKELINIKGISEAKADKILAEA | 4.55
NPKKELINIKGISEAKADKILAEA | 4.71
APKKELINIKGISEFKADKILAEA | 4.45
APKKELINIKGISESKADKILAEA | 4.78
APKKELINIKGISEGKADKILAEA | 4.81
APKKELINIKGISEKKADKILAEA | 4.95
APKKELINIKGISEWKADKILAEA | 3.88
APKKELINIKMISEAKADKILAEA | 3.98
APKKELINIKDISEAKADKILAEA | 4.9
APKKELINIKPISEAKADKILAEA | 4.93
APKKELINIKNISEAKADKILAEA | 4.62
APKKELINIKQISEAKADKILAEA | 4.72

Variant | protein stability index
APKKELINIKRISEAKADKILAEA | 4.37
APKKELINIKCISEAKADKILAEA | 4.17
APKKELINIKEISEAKADKILAEA | 4.74
APKKELIRIKGISEAKADKILAEA | 4.79
APKKELIKIKGISEAKADKILAEA | 4.13
APKKELIMIKGISEAKADKILAEA | 4.17
APKKELIWIKGISEAKADKILAEA | 3.75
APKKELITIKGISEAKADKILAEA | 4.01
APKKELINLKGISEAKADKILAEA | 4.62
APKKELINQKGISEAKADKILAEA | 4.8
APKKELINYKGISEAKADKILAEA | 4.91
APKKELINGKGISEAKADKILAEA | 5.11
APKKELINHKGISEAKADKILAEA | 4.66
APKKELINSKGISEAKADKILAEA | 4.89
APKKELINKKGISEAKADKILAEA | 5.22
APKKELINIKGISEAKADKILAEC | 4.51
APKKELINIKGISEAKADKILAEV | 4.26
APKKELINIKGISEAKADKILAEI | 3.61
APKKELINIKGISEAKADKILAEK | 5.26
APKKELINIKGISEAKADKILAEL | 4.4
APKKELINIKGISEAKADKILAEW | 3.97
APKKELINIKGISEAKADKILAEE | 3.9
APKKELINIKGISEAKADKILAEF | 3.53
